Test results taken from patent publication WO2021180110A1.

Molecular target: CD147 (human) (UniProt P35613)
Assay: SPR, BIAcore 3000, CD147 amine-coupled on CM5 chip, Spike-RBD as analyte

Work on “new coronavirus S protein (COVID-19 Spike-RBD) (from UniProt P0DTC2 319-541) (ligand; other documents disagree on this pair)” yielded a Kd of 185 nM, a koff of 0.00206 s⁻¹ and a kon of 11100 M⁻¹ s⁻¹.
